Test results as given in US20110183329A1, “PROTEIN PHOSPHATASE-1 INHIBITOR-1 POLYMORPHISM AND METHODS OF USE” (priority 2008, published 2011).
Residue numbers refer to the chain shown, from its start.

Experiments:
PLN = experiment: Western blotting of PLN phosphorylation in infected cardiomyocytes; type: cell-based, rat
troponin I = experiment: Western blotting of troponin I phosphorylation in infected cardiomyocytes; type: cell-based; details: adult rat cardiomyocytes
Protocol: (§1) Recombinant adenovirus carrying empty vector, wild-type (WT) G147 inhibitor-1, or D147 inhibitor-1 was generated by using the Adeno-X expression system kit (Clontech, Mountain View, Calif.). All of the adenoviruses also expressed GFP as an indicator of transfection efficiency. Two hours after isolation and culture, myocytes seeded on coverslips or dishes were infected with adenovirus in diluted media, at a multiplicity of infection of 500, for 2 h before the addition of a suitable volume of culture media. Twenty-four hours later, the myocytes were washed in KHB including 1 mM Ca and harvested for quantitative immunoblotting or use in the experiments outlined below.
(§2) Alterations in the phosphorylation and/or total level of proteins were analyzed from whole heart homogenates, with the exception of MyBP-C, which was analyzed from a myofibril protein preparation, using Western blotting. 2-70 μg of protein were separated on polyacrylamide gels (6-15%) and transferred to nitrocellulose membranes. The membranes were incubated with primary antibodies, which were visualized by peroxidase-conjugated secondary antibodies (Amersham Biosciences) and enhanced chemiluminescence (Supersignal West Pico Chemiluminescent, Pierce). The bands were then quantified with densitometry, using ImageQuant 5.2 (GE Healthcare, Little Chalfont, UK). […]

adult rat cardiomyocytes = experiment: Contractile parameter measurements in adenovirus-infected myocytes; type: cell-based; details: for contractility response to isoproterenol (fractional shortening, contraction, relaxation): adenovirus-infected cardiomyocytes; for cellular contractility (fractional shortening, contracting velocity, relaxing velocity): basal conditions, overexpression by adenovirus, 24 h
Protocol: Adult rat ventricular myocytes were isolated and cultured. Hearts from adult male Sprague-Dawley rats (8 wk old) were perfused with modified Krebs-Henseleit buffer (KHB) (118 mM NaCl, 4.8 mM KCl, 25 mM HEPES, 1.25 mM K2HPO4, 1.25 mM MgSO4, 11 mM glucose, 5 mM taurine, and 10 mM butanedione monoxime; pH 7.4) for 5 min. Subsequently, hearts were perfused with an enzyme solution [KHB containing 0.7 mg/ml collagenase type II (263 U/mg), 0.2 mg/ml hyaluronidase, 0.1% BSA, and 25 μM Ca]. Ten and 15 min later, 25 and 50 μM Ca, respectively, were added to the perfusion buffer, so that the Ca concentration was raised to 100 μM, and perfusion was continued for another 5 min. Finally, left ventricular tissue was excised, minced, pipette dissociated, and filtered through a […] screen. Cells were harvested and resuspended in KM including 1 mM Ca and 1% BSA. After a brief centrifugation, the cells were resuspended in KHB including 1.8 mM Ca and 1% BSA, centrifuged briefly again, and resuspended in Dulbecco's modified Eagle's medium containing 2 mg/ml BSA, 2 mM L-camitine, 5 mM creatine, 5 mM taurine, 1.8 mM Ca, 100 IU/ml penicillin, and 100 μg/ml streptomycin. Cells were then counted and plated on laminin-coated glass coverslips or dishes.
as §1
Myocytes that adhered to the coverslips were bathed in temperature (37° C.)—equilibrated KHB containing 1 mM Ca for 20 min. The myocyte suspension was then placed in a Plexiglas chamber, which was positioned on the stage of an inverted epifluorescence microscope (Diaphot 200; Nikon, Tokyo, Japan). Myocyte contraction was field-stimulated by a Grass S5 stimulator (0.5 Hz, square. waves; Grass Technologies, An Astro-Med, Inc., West Warwick, R.I., USA), and contractions were videotaped and digitized on a computer. A video edge motion detector (Crescent Electronics, Windsor, ON, Canada) was used to measure myocyte length and cell shortening, from which the percent fractional shortening (% FS) and maximal rates of contraction and relaxation (±dL/dt) were calculated. To investigate the response of adult rat cardiomyocytes to isoproterenol, a maximal concentration of isoproterenol (100 nM) was added to the KHB (including 1 mM Ca) in the Plexiglas chamber, and the above-mentioned measurements were repeated. All data were analyzed using software from Felix 1.1 software (Photon Technology International, Birmingham, N.J., USA) and IonWizard (IonOptix Corp., Milton, Mass., USA).

RyR = experiment: Western blotting of RyR phosphorylation in infected cardiomyocytes; type: cell-based; details: adult rat cardiomyocytes
Protocol: as §1, §2

[1] = test system: major regulatory proteins related to cardiac calcium homeostasis; experiment: Quantitative immunoblotting of calcium homeostasis regulatory proteins after adenoviral gene transfer; type: cell-based, rat; details: 24 h post-transfection
From the text: FIG. 2. Isolated adult rat cardiomyocytes were infected with adenoviruses expressing GFP as control (empty), G147 inhibitor-1 or D147 inhibitor-1. (A) Images of infected cardiomyocytes and GFP expression. (B) Representative western blots display expression levels of inhibitor-1, SERCA 2a, PLN, CSQ, and L-type Ca-channel (LTCC).
as §1

Which “effect of isoproterenol on phosphorylation of PLN in control cells” value (PLN; control cells) does the source give for `CC(C)NCC(O)c1ccc(O)c(O)c1` (centres unmarked) [isoproterenol, reference compound] here?
The value was “increased”.

What about the “effect of isoproterenol treatment on troponin I phosphorylation” value (troponin I) of the same molecule?
Its value is “increased”.

And the “effect of isoproterenol on contractility of control-virus cardiomyocytes” value (adult rat cardiomyocytes; 100 nM isoproterenol, control virus)?
Its value is “enhanced contractility”.

And the “effect of isoproterenol treatment on RyR phosphorylation” value (RyR)?
Its value is “increased”.

B1: WT inhibitor-1: wild-type human protein phosphatase-1 inhibitor-1 (SEQ ID NO:13) overexpressed by recombinant adenovirus (protein, listed as Homo sapiens)
chain: MEQDNSPRKIQFTVPLLEPHLDPEAAEQIRRRRPTPATLVLTSDQSSPEIDEDRIPNPHLKSTLAMSPRQRKKMTRITPTMKELQMMVEHHLGQQQQGEEPEGAAESTGTQESRPPGIPDTEVESRLGTSGTAKKTAECIPKTHERGSKEPSTKEPSTHIPPLDSKGANSV
What does the source list for B1?
level of phosphorylated PLN on serine 16 depressed (PLN; in the presence of isoproterenol): ~50%; phosphorylation of PLN (PLN; in the presence of isoproterenol, versus control cells): similarly increased; levels of the major regulatory proteins related to cardiac calcium homeostasis [1]: did not alter; contractility response to isoproterenol (fractional shortening, contraction, relaxation) (adult rat cardiomyocytes; 100 nM isoproterenol): enhanced contractility; cellular contractility (fractional shortening, contracting velocity, relaxing velocity) (adult rat cardiomyocytes): did not alter

B2: D147 inhibitor-1: human inhibitor-1 with aspartic acid for glycine at position 147 (SEQ ID NO:14), overexpressed by recombinant adenovirus (protein, listed as Homo sapiens)
chain: B1 chain with G147D
With B2 as the molecule, how does the “levels of the major regulatory proteins related to cardiac calcium homeostasis” value [1] read?
The value was “did not alter”.

What about the “contractility response at lower isoproterenol dose” value (adult rat cardiomyocytes; 10 nM isoproterenol) of the same molecule?
The value was “differences similar to those observed in 100 nM”.

What about the “contractile parameters depressed compared with WT inhibitor-1-stimulated cells” value (adult rat cardiomyocytes; 100 nM isoproterenol) of the same molecule?
Its value is 24-28%.

What about the “contractility response to isoproterenol (fractional shortening, contraction, relaxation)” value (adult rat cardiomyocytes; 100 nM isoproterenol) of the same molecule?
Its value is “significantly blunted”.

What about the “cellular contractility (fractional shortening, contracting velocity, relaxing velocity)” value (adult rat cardiomyocytes) of the same molecule?
The value was “did not alter”.
